Data from paper doi:10.1101/2025.03.14.643404 (2025).

Legend:
[1] = target: T1, BCL6^BTB (residues 5-129; C8Q, C67R, C84N), tags cleaved (pSG219C) (human, UniProt P41182 5-129, C8Q | C67R | C84N); assay: ITC; BCL6 binding to p300:TCIP3 binary complex (ternary, alpha 13)
[2] = target: T1, BCL6^BTB (residues 5-129; C8Q, C67R, …); assay: ITC; p300 binding to BCL6:TCIP3 binary complex (ternary, alpha 3.5)

B1: 6xHis-p300^BD (p300 bromodomain) (domain or fragment)
chain: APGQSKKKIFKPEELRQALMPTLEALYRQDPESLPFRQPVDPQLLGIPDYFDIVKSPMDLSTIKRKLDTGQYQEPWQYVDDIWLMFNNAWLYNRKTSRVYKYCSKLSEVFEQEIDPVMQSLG
B1 was tested, and the Kd [1] was 0.0198 µM and the Kd [2] was 0.00237 µM.
